# Measured values reported in PMC3985721.
# Legend:
# Test in all cases: native MS
# [1] = target: human soluble guanylate cyclase α subunit catalytic domain, truncated αGC(466–662) (human) (UniProt Q02108)
# [2] = target: human soluble guanylate cyclase β subunit catalytic domain, wild type, βGC(407–626) (UniProt Q02153)
# [3] = target: human soluble guanylate cyclase α subunit catalytic domain, αGC(466–690) (human) (UniProt Q02108)
# Sequence of UniProt Q02153 (Q02153 whole entry, looked up, the tested form may be a part): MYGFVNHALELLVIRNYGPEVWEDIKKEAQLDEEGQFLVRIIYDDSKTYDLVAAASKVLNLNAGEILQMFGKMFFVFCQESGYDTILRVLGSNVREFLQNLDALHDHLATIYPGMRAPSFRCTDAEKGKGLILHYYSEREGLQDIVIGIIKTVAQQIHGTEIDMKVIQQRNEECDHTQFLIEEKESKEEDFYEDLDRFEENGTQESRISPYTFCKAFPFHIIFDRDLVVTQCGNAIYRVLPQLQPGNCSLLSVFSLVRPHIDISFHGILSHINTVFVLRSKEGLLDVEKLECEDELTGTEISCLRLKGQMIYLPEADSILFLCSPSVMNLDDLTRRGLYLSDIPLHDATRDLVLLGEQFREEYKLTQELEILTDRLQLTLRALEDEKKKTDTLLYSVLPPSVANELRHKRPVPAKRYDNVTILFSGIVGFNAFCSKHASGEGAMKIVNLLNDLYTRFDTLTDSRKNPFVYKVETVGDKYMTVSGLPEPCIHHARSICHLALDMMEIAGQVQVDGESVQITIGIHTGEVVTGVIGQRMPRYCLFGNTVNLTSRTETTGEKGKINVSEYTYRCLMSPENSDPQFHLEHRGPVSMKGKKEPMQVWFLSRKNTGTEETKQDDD
substance,measurement,setting,value
"human soluble guanylate cyclase α subunit catalytic domain, truncated αGC(466–662) (from UniProt Q02108 466-662) (domain or fragment)",stoichiometry N,[1],2
"human soluble guanylate cyclase α subunit catalytic domain, shorter construct αGC661 (residues 466–661)",relative abundance of the heterodimer (%),[2],82.5%
"human soluble guanylate cyclase α subunit catalytic domain, αGC(466–690) (from UniProt Q02108 466-690) (domain or fragment)",stoichiometry N,[3],2
